Test results from patent US20190119377A1.

Legend:
[1] = molecular target: human FcRn on FcRn-transfected 293FS cells (293FS+FcRn+β2m (clone #2)) (human) (UniProt P55899); experiment: competition flow cytometry; displacement of AF488-labelled IgG1 (3.33 nM) from human FcRn-transfected 293FS cells, pH 5.5
[2] = molecular target: CD16 on CD16-transfected NFAT-bla Jurkat cells (UniProt P08637); experiment: competition flow cytometry; displacement of AF488-labelled human IgG1 (25 nM) from CD16-transfected NFAT-bla Jurkat cells
UniProt P08637, sequence (P08637 17-254 limits assumed): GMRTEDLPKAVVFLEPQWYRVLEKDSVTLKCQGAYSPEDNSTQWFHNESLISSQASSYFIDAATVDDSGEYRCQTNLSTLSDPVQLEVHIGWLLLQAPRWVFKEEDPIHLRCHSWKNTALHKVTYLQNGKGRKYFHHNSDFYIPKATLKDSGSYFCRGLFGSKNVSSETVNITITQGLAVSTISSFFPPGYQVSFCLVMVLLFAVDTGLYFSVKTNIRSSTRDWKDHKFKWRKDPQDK

UniProt P55899, sequence (P55899 24-365, chain 1 of 2): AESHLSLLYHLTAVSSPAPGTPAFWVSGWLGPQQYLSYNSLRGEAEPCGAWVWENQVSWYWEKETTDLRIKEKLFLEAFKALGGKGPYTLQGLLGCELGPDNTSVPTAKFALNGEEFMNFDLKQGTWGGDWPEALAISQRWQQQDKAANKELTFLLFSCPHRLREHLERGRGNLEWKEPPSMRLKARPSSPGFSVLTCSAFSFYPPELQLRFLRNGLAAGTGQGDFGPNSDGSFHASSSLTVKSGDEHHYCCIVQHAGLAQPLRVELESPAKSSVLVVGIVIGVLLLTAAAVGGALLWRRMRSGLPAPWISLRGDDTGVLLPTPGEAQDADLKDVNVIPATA
UniProt P55899, sequence (P61769 21-119, chain 2 of 2, further chain): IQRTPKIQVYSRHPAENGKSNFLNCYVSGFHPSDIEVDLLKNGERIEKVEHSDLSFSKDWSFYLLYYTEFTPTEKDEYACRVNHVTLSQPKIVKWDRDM

human IgG1 (antibody)
Ki [1]: 200 nM | Ki [2]: 225 nM
